The assay addresses T1, Taq DNA polymerase (Thermus aquaticus, UniProt P19821 1-832).
T1 construct: also called Taq enzyme; Taq DNA enzyme
The assay is described as follows: AMC sensor, antibody immobilised.

Changes are numbered by the printed parent chain.

T1 sequence (P19821 whole entry): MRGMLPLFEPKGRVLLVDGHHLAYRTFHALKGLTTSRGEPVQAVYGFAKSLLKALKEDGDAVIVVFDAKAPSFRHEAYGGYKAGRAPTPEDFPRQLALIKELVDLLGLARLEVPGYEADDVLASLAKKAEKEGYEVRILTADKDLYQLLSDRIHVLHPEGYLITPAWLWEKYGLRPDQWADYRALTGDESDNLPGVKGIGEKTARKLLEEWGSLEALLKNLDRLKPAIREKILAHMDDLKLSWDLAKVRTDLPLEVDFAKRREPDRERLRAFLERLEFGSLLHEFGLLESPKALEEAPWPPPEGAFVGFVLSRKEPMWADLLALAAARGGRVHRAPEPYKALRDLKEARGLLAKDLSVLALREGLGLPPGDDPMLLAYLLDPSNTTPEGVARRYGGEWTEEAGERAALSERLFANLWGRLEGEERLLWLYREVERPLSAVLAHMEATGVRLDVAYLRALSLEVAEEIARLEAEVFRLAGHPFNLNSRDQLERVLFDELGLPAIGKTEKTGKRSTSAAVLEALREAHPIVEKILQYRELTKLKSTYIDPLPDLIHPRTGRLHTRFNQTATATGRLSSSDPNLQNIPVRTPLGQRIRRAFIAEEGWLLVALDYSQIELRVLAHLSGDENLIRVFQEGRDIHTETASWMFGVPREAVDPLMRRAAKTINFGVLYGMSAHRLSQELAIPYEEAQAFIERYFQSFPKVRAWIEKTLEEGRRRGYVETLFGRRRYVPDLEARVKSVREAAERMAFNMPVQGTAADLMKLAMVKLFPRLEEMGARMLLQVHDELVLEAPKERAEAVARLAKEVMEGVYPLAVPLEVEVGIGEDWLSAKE

B1: Mutation 1-1 (antibody, V domains shown)
VH: QVQLQQPGAELVKPGASVRLSCQTSVDTFTTYYIYWVKQRPGEGLEWIGGINPTSNPVFNEKFKSKATLTVDTSSSTAYMQLSSLTSVDSAVYYCTRSIVRRGYYFDYWGQGTALTVSS
VL: DIQMTQTTSSLSASLGDRVTISCRASQDINNYVNWYQQKPDGTIKLLIYYTSRLQSGVPSRFSGSGSGTDYSLTIANLEQEDIATYFCQQDDTIPITFGAGTKVELKR
notes: Mutation 1 background; CDRs built
For the molecule B1, the Kd amounted to 491 pM, the off-rate (koff) came to 1.58e-05 s⁻¹ and the kon turned out to be 32200 M⁻¹ s⁻¹.

B2: Mutation 1-17 (antibody, V domains shown)
VH: QVQLQQPGAELVKPGASVRLSCQTSVNTFTTYYIYWVKQRPGEGLEWIGGLNPTSGGPVFNEKFKSKATLTVDTSSSTAYMQLSSLTSVDSAVYYCTRSLIRRGYYFDYWGQGTALTVSS
VL: B1 VL with V33I, Q55N, V58L, I94L, I96L
notes: as for B1
In the case of B2, the Kd is 398 pM, the off-rate constant (koff) was 1.36e-05 s⁻¹ and the kon stood at 34000 M⁻¹ s⁻¹.

B3: Mutation 1-20 (antibody, V domains shown)
VH: B1 VH with D27E, I51L, V100I
VL: B1 VL with N30Q, V33L, Q55N, V58I, I96L
notes: as for B1
As for B3, binding was characterised by a dissociation constant (Kd) of 728 pM, the koff amounted to 6.43e-05 s⁻¹ and the on-rate constant (kon) was 88300 M⁻¹ s⁻¹.

B4: Mutation 1-42 (antibody, V domains shown)
VH: B1 VH with D27E, T30S, I99L, V100L
VL: B1 VL with N30Q, V58L, I94L, I96L
notes: as for B1
Molecule B4 returned an equilibrium dissociation constant (Kd) of 803 pM, an off-rate constant (koff) of 3.75e-05 s⁻¹ and an association rate constant (kon) of 46700 M⁻¹ s⁻¹.

B5: Mutation 1-57 (antibody, V domains shown)
VH: B1 VH with D27E, T30S, I51V, I99V, V100L
VL: B1 VL with V33L, I94V, I96V
notes: as for B1
As to B5, the equilibrium dissociation constant (Kd) was found to be 362 pM, the koff amounted to 2.49e-05 s⁻¹ and the kon came to 69000 M⁻¹ s⁻¹.

B6: Mutation 1-4 (antibody, V domains shown)
VH: B2 VH with T30S, L51I, L100V, I101V
VL: B1 VL with N30Q, V33I, Q55H, I94V
notes: as for B1
B6 showed a Kd of 719 pM, a koff of 2.75e-05 s⁻¹ and an association rate constant (kon) of 38200 M⁻¹ s⁻¹.

B7: Mutation 1-40 (antibody, V domains shown)
VH: B2 VH with N27D, T30S, L100V, I101V
VL: B1 VL with N30Q, V33I, Q55H, I94V
notes: as for B1
On to B7, for which the affinity, expressed as Kd, was 615 pM; the koff stood at 4.7e-05 s⁻¹; the kon came to 76400 M⁻¹ s⁻¹.

B8: Mutation 1-22 (antibody, V domains shown)
VH: B2 VH with L51I, L100V, I101V
VL: B1 VL with N30Q, V33I, Q55H, I94V
notes: as for B1
The molecule B8 displayed a Kd of 384 pM, a koff of 3.7e-05 s⁻¹ and an on-rate constant (kon) of 97200 M⁻¹ s⁻¹.

B9: Mutation 1-6 (antibody, V domains shown)
VH: B1 VH with T30S, I51V, I99L, V100L
VL: B1 VL with N30Q, Q55N, V58I, I94L, I96V
notes: as for B1
As for B9, the Kd turned out to be 808 pM, the koff was determined as 3.41e-05 s⁻¹ and the on-rate constant (kon) was determined as 42100 M⁻¹ s⁻¹.

B10: Mutation 1-16 (antibody, V domains shown)
VH: B2 VH with T30S, L51I, I101V
VL: B1 VL with N30Q, V33I, Q55N, I94L
notes: as for B1
B10 had a Kd of 223 pM, a koff of 1.45e-05 s⁻¹ and an on-rate (kon) of 65100 M⁻¹ s⁻¹.

B11: Mutation 1-10 (antibody, V domains shown)
VH: B2 VH with T30S, L51I, L100I, I101V
VL: B1 VL with N30Q, V33I
notes: as for B1
As to B11, the Kd was 384 pM, the off-rate (koff) worked out at 3.76e-05 s⁻¹ and the on-rate constant (kon) is 98000 M⁻¹ s⁻¹.

B12: Mutation 1-5 (antibody, V domains shown)
VH: B2 VH with L100V
VL: B1 VL with V33I, Q55H, V58L, I94V, I96L
notes: as for B1
For the molecule B12, the affinity, expressed as Kd, was 873 pM; the koff was found to be 7.78e-05 s⁻¹; the kon was found to be 89100 M⁻¹ s⁻¹.

B13: Mutation 1-21 (antibody, V domains shown)
VH: B2 VH with T30S, L51V, L100V, I101L
VL: B1 VL with V33L, I94V, I96V
notes: as for B1
The molecule B13 came in with a Kd of 66.4 pM, a koff of 5.96e-06 s⁻¹ and a kon of 89800 M⁻¹ s⁻¹.

B14: Mutation 1-2 (antibody, V domains shown)
VH: B1 VH with D27E, T30S, I51L, V100I
VL: B1 VL with N30Q, V33L, V58L, I96L
notes: as for B1
Regarding B14, the affinity, expressed as Kd, was 285 pM; the off-rate (koff) was determined as 1.42e-05 s⁻¹; the on-rate constant (kon) came out at 49700 M⁻¹ s⁻¹.

B15: Mutation 1-60 (antibody, V domains shown)
VH: B2 VH with L51V, I101L
VL: B1 VL with N30Q, V33I, Q55H, I94L, I96V
notes: as for B1
For B15, the Kd turned out to be 31.4 pM, the koff stood at 2.66e-06 s⁻¹ and the kon was determined as 84600 M⁻¹ s⁻¹.

B16: Mutation 1-47 (antibody, V domains shown)
VH: B1 VH with I51V, V100I
VL: B1 VL with V33I, Q55N, V58L, I96V
notes: as for B1
Molecule B16 came in with a Kd of 739 pM, a koff of 4.67e-05 s⁻¹ and an association rate constant (kon) of 63200 M⁻¹ s⁻¹.

B17: Mutation 1-31 (antibody, V domains shown)
VH: B2 VH with L100V, I101V
VL: B1 VL with Q55H, I94V
notes: as for B1
With B17, the affinity, expressed as Kd, was 850 pM; the koff came out at 5.38e-05 s⁻¹; the association rate constant (kon) turned out to be 63300 M⁻¹ s⁻¹.

B18: Mutation 1-52 (antibody, V domains shown)
VH: B2 VH with N27E, I101V
VL: B1 VL with N30Q, V33I, Q55H, V58I, I94L
notes: as for B1
For B18, binding was put at a Kd of 698 pM, the koff came out at 2.37e-05 s⁻¹ and the kon is 34000 M⁻¹ s⁻¹.

B19: Mutation 1-54 (antibody, V domains shown)
VH: B1 VH with D27N, I51L, V100L
VL: B1 VL with N30Q, Q55N, I96V
notes: as for B1
B19 showed a dissociation constant (Kd) of 273 pM, a koff of 1.01e-05 s⁻¹ and a kon of 37200 M⁻¹ s⁻¹.

B20: Mutation 1-36 (antibody, V domains shown)
VH: B1 VH with D27E, T30S, V100L
VL: B1 VL with N30Q, V58I, I96L
notes: as for B1
In turn, B20 yielded a Kd of 768 pM, a koff of 3.85e-05 s⁻¹ and a kon of 50200 M⁻¹ s⁻¹.

B21: Mutation 1-39 (antibody, V domains shown)
VH: B2 VH with L51I, L100V, I101L
VL: B1 VL with V33L, I94V, I96L
notes: as for B1
Molecule B21 had a Kd of 457 pM, a koff of 2.2e-05 s⁻¹ and a kon of 48100 M⁻¹ s⁻¹.

B22: Mutation 1-50 (antibody, V domains shown)
VH: B2 VH with T30S, L51V, L100V
VL: B1 VL with N30Q, V33L, V58L, I94V, I96V
notes: as for B1
The molecule B22 yielded a Kd of 593 pM, an off-rate constant (koff) of 3.02e-05 s⁻¹ and a kon of 50800 M⁻¹ s⁻¹.

B23: Mutation 1-32 (antibody, V domains shown)
VH: B2 VH with N27D, T30S, L51V, L100V
VL: B1 VL with N30Q, V33L, Q55N, I94V, I96V
notes: as for B1
Take B23: binding was characterised by a dissociation constant (Kd) of 281 pM, the koff was 8.8e-06 s⁻¹ and the kon stood at 31300 M⁻¹ s⁻¹.

B24: Mutation 1-18 (antibody, V domains shown)
VH: B1 VH with I51V, V100L
VL: B1 VL with N30Q, V58I, I96V
notes: as for B1
For the molecule B24, binding was characterised by a dissociation constant (Kd) of 677 pM, the koff came out at 4.5e-05 s⁻¹ and the kon amounted to 66400 M⁻¹ s⁻¹.

B25: Mutation 1-12 (antibody, V domains shown)
VH: B1 VH with T30S, I51V, I99V, V100L
VL: B1 VL with N30Q, Q55H, V58I, I94V, I96V
notes: as for B1
Consider B25, for which binding was characterised by a dissociation constant (Kd) of 22 pM, the dissociation rate constant (koff) amounted to 2.05e-06 s⁻¹ and the on-rate constant (kon) was 93400 M⁻¹ s⁻¹.

B26: Mutation 1-30 (antibody, V domains shown)
VH: B2 VH with T30S, L51I, L100V, I101L
VL: B1 VL with N30Q, I94V, I96L
notes: Mutation 1 background; CDRs built; CDR-VL3 cell printed VL, read as V/L
B26 came in with a Kd of 911 pM, a koff of 4.49e-05 s⁻¹ and an association rate constant (kon) of 49300 M⁻¹ s⁻¹.

B27: Mutation 1-34 (antibody, V domains shown)
VH: B2 VH with N27D, T30S, I101V
VL: B1 VL with N30Q, V33I, Q55H, V58L, I94L
notes: as for B1
With B27, the Kd stood at 987 pM, the koff amounted to 6.17e-05 s⁻¹ and the on-rate (kon) is 62600 M⁻¹ s⁻¹.

B28: Mutation 1-23 (antibody, V domains shown)
VH: B2 VH with N27D, T30S, L100V
VL: B1 VL with V33I, Q55N, I94V, I96L
notes: as for B1
Regarding B28, the Kd is 913 pM, the koff amounted to 6.41e-05 s⁻¹ and the kon came out at 70200 M⁻¹ s⁻¹.

B29: Mutation 1-28 (antibody, V domains shown)
VH: B1 VH with T30S
VL: B1 VL with N30Q, V33I, Q55H, V58I
notes: Mutation 1 background; CDRs built; also called Mutation 148
B29 registered a dissociation constant Kd of 402 pM, a koff of 2.61e-05 s⁻¹ and an association rate constant (kon) of 65000 M⁻¹ s⁻¹.

B30: Mutation 1-48 (antibody, V domains shown)
VH: B1 VH with D27E, T30S, I99V, V100L
VL: B1 VL with N30Q, I94V, I96L
notes: as for B1
For B30, binding was put at a Kd of 384 pM, the off-rate constant (koff) worked out at 3.72e-05 s⁻¹ and the kon turned out to be 97900 M⁻¹ s⁻¹.

B31: Mutation 1-46 (antibody, V domains shown)
VH: B2 VH with N27D, T30S, L100I, I101V
VL: B1 VL with N30Q, V33I, Q55N, V58I
notes: as for B1
On to B31, for which the Kd is 655 pM, the koff worked out at 2.87e-05 s⁻¹ and the kon worked out at 43800 M⁻¹ s⁻¹.

B32: Mutation 1-27 (antibody, V domains shown)
VH: B1 VH with D27N, I51V, V100L
VL: B1 VL with V33L, V58I, I96V
notes: as for B1
In the case of B32, the affinity, expressed as Kd, was 28 pM; the dissociation rate constant (koff) came out at 2.03e-06 s⁻¹; the kon was 72400 M⁻¹ s⁻¹.

For orientation: Kd means a measure of binding affinity in units of concentration. High values mean weaker binding, low ones tighter binding. What is called koff is a measure of how fast the partners let go of each other. The kon is the second-order rate constant of association.

These data come from patent US20210403601A1 (FAPON BIOTECH, published 2021).
